B1: Calcium-binding protein 39 (Homo sapiens), Q9Y376 (parent)
chain: MPFPFGKSHKSPADIVKNLKESMAVLEKQDISDKKAEKATEEVSKNLVAMKEILYGTNEKEPQTEAVAQLAQELYNSGLLSTLVADLQLIDFEGKKDVAQIFNNILRRQIGTRTPTVEYICTQQNILFMLLKGYESPEIALNCGIMLRECIRHEPLAKIILWSEQFYDFFRYVEMSTFDIASDAFATFKDLLTRHKLLSAEFLEQHYDRFFSEYEKLLHSENYVTKRQSLKLLGELLLDRHNFTIMTKYISKPENLKLMMNLLRDKSRNIQFEAFHVFKVFVANPNKTQPILDILLKNQAKLIEFLSKFQNDRTEDEQFNDEKTYLVKQIRDLKRPAQQEA

Variants of: B1
Conditions: with STK26, Q9P289-1
Sequence of STK26, Q9P289-1 (Q9P289 whole entry, looked up): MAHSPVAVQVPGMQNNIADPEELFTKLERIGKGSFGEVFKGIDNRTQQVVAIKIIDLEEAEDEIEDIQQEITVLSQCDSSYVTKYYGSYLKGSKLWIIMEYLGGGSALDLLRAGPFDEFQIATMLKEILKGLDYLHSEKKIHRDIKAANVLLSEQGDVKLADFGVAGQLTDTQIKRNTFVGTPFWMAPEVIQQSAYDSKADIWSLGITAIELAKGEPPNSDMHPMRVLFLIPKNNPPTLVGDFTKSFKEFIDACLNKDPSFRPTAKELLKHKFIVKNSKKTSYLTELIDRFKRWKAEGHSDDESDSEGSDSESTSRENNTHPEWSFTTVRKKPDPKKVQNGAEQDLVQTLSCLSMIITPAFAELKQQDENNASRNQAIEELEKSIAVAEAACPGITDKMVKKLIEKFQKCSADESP

| effect of a mutation on the interaction | Variant |
| --- | --- |
| decreasing interaction strength | MPFPFGKSHKSPADIVKNLKESMAVLEKQDISDKKAEKATEEVSKNLVAMKEILYGTNEKEPQTEAVAQLAQELYNSGLLSTLVADLQLIDFEGKKDVAQIFNNILRRQIGTRTPTVEYICTQQNILFMLLKGYESPEIALNCGIMLRECIRHEPLAKIILWSEQFYDFFRYVEMSTFDIASDAFATFKDLLTRHKLLSAEFLEQHYDRFFSEYEKLLHSENYVTKRQSLKLLGELLLDRHNFTIMTKYISKPENLKLMENLLRDKSRNIQFEAFHVFKVFVANPNKTQPILDILLKNQAKLIEFLSKFQNDRTEDEQFNDEKTYLVKQIRDLKRPAQQEA [M260E] |
| decreasing interaction strength | MPFPFGKSHKSPADIVKNLKESMAVLEKQDISDKKAEKATEEVSKNLVAMKEILYGTNEKEPQTEAVAQLAQELYNSGLLSTLVADLQLIDFEGKKDVAQIFNNILRRQIGTRTPTVEYICTQQNILFMLLKGYESPEIALNCGIMLRECIRHEPLAKIILWSEQFYDFFRYVEMSTEDIASDAFATFKDLLTRHKLLSAEFLEQHYDRFFSEYEKLLHSENYVTKRQSLKLLGELLLDRHNFTIMTKYISKPENLKLMMNLLRDKSRNIQFEAFHVFKVFVANPNKTQPILDILLKNQAKLIEFLSKFQNDRTEDEQFNDEKTYLVKQIRDLKRPAQQEA [F178E] |
| decreasing interaction strength | MPFPFGKSHKSPADIVKNLKESMAVLEKQDISDKKAEKATEEVSKNLVAMKEILYGTNEKEPQTEAVAQLAQELYNSGLLSTLVADLQLIDFEGKKDVAQIFNNILRRQIGTRTPTVEYICTQQNILFMLLKGYESPEIALNCGIMLRECIRHEPLAKIILWSEQFYDFFRYVEMSTFDIASDAFATFKDLLTRHKLLSAEFLEQHYDRFFSEYEKLLHSENYVTKAQSLKLLGELLLDRHNFTIMTKYISKPENLKLMMNLLRDKSRNIQFEAFHVFKVFVANPNKTQPILDILLKNQAKLIEFLSKFQNDRTEDEQFNDEKTYLVKQIRDLKRPAQQEA [R227A] |
| decreasing interaction strength | MPFPFGKSHKSPADIVKNLKESMAVLEKQDISDKKAEKATEEVSKNLVAMKEILYGTNEKEPQTEAVAQLAQELYNSGLLSTLVADLQLIDFEGKKDVAQIFNNILRRQIGTRTPTVEYICTQQNILFMLLKGYESPEIALNCGIMLRECIRHEPLAKIILWSEQFYDFFRYVEMSTFDIASDAFATFKDLLTRHKLLSAEFLEQHYDRFFSEYEKLLHSENAVTKRQSLKLLGELLLDRHNFTIMTKYISKPENLKLMMNLLRDKSRNIQFEAFHVFKVFVANPNKTQPILDILLKNQAKLIEFLSKFQNDRTEDEQFNDEKTYLVKQIRDLKRPAQQEA [Y223A] |
| decreasing interaction strength | MPFPFGKSHKSPADIVKNLKESMAVLEKQDISDKKAEKATEEVSKNLVAMKEILYGTNEKEPQTEAVAQLAQELYNSGLLSTLVADLQLIDFEGKKDVAQIFNNILRRQIGTRTPTVEYICTQQNILFMLLKGYESPEIALNCGIMLRECIRHEPLAKIILWSEQFYDFFRYVEMSTEDIASDAFATFKDLLTRHKLLSAEFLEQHYDRFFSEYEKLLHSENYETKRQSLKLLGELLLDRHNFTIMTKYISKPENLKLMMNLLRDKSRNIQFEAFHVFKVFVANPNKTQPILDILLKNQAKLIEFLSKFQNDRTEDEQFNDEKTYLVKQIRDLKRPAQQEA [F178E;V224E] |

Variants of: B1
Conditions: with STK26, Q9P289-1
Remark: another data set of the same source

| effect of a mutation on the interaction | Variant |
| --- | --- |
| disrupting interaction strength | MPFPFGKSHKSPADIVKNLKESMAVLEKQDISDKKAEKATEEVSKNLVAMKEILYGTNEKEPQTEAVAQLAQELYNSGLLSTLVADLQLIDFEGKKDVAQIFNNILRRQIGTRTPTVEYICTQQNILFMLLKGYESPEIALNCGIMLRECIRHEPLAKIILWSEQFYDFFRYVEMSTFDIASDAFATFKDLLTRHKLLSAEFLEQHYDRFFSEYEKLLHSENYVTKRQSLKLLGELLLDRHNFTIMTKYISKPENLKLMENLLRDKSRNIQFEAFHVFKVFVANPNKTQPILDILLKNQAKLIEFLSKFQNDRTEDEQFNDEKTYLVKQIRDLKRPAQQEA [M260E] |
| disrupting interaction strength | MPFPFGKSHKSPADIVKNLKESMAVLEKQDISDKKAEKATEEVSKNLVAMKEILYGTNEKEPQTEAVAQLAQELYNSGLLSTLVADLQLIDFEGKKDVAQIFNNILRRQIGTRTPTVEYICTQQNILFMLLKGYESPEIALNCGIMLRECIRHEPLAKIILWSEQFYDFFRYVEMSTEDIASDAFATFKDLLTRHKLLSAEFLEQHYDRFFSEYEKLLHSENYETKRQSLKLLGELLLDRHNFTIMTKYISKPENLKLMMNLLRDKSRNIQFEAFHVFKVFVANPNKTQPILDILLKNQAKLIEFLSKFQNDRTEDEQFNDEKTYLVKQIRDLKRPAQQEA [F178E;V224E] |

Source: IntAct's records for PubMed 23434407
